Where a chain is given by its changes, count along the chain named. In names and notes the source's numbering stands.
B1: GLS3000 H34A one-arm antibody (antibody, human IgG1, kappa, L234A L235A, N297A, name in Kabat numbering)
heavy: QVQLVESGGGVVQPGRSLRLSCAASGFTFSNAWMHWVRQAPGKGLEWVAQIKAKSNNYATYYAESVKGRFTISRDDSKNSLYLQMNSLKTEDTAVYYCRYVHYGAYYGVDAWGQGTTVTVSSASTKGPSVFPLAPSSKSTSGGTAALGCLVKDYFPEPVTVSWNSGALTSGVHTFPAVLQSSGLYSLSSVVTVPSSSLGTQTYICNVNHKPSNTKVDKKVEPKSCDKTHTCPPCPAPEAAGGPSVFLFPPKPKDTLMISRTPEVTCVVVDVSHEDPEVKFNWYVDGVEVHNAKTKPREEQYASTYRVVSVLTVLHQDWLNGKEYKCKVSNKALPAPIEKTISKAKGQPREPQVYTLPPSRCELTKNQVSLSCAVKGFYPSDIAVEWESNGQPENNYKTTPPVLDSDGSFFLVSKLTVDKSRWQQGNVFSCSVMHEALHNHYTQKSLSLSPDYKDDDDK
chain: EPKSSDKTHTCPPCPAPELLGGPSVFLFPPKPKDTLMISRTPEVTCVVVDVSHEDPEVKFNWYVDGVEVHNAKTKPREEQYNSTYRVVSVLTVLHQDWLNGKEYKCKVSNKALPAPIEKTISKAKGQPREPQVCTLPPSRDELTKNQVSLWCLVKGFYPSDIAVEWESNGQPENNYKTTPPVLDSDGSFFLYSKLTVDKSRWQQGNVFSCSVMHEALHNRYTQKSLSLSP
light: DIVMTQSPLSLPVTPGEPASISCRSSQSLVHSNRNTYLAWYQQKPGQAPRLLIYKVSNRFSGVPDRFSGSGSGTDFTLKISRVEAEDVGVYYCGQGTQVPYTFGQGTKLEIKRTVAAPSVFIFPPSDEQLKSGTASVVCLLNNFYPREAKVQWKVDNALQSGNSQESVTEQDSKDSTYSLSSTLTLSKADYEKHKVYACEVTHQGLSSPVTKSFNRGEC
B2: GLS3000 K50L one-arm antibody (antibody, human IgG1, kappa, L234A L235A, N297A, name in Kabat numbering)
heavy: B1 heavy
chain: B1 chain
light: B1 light with A39H, K55L
B3: GLS3000 K107E one-arm antibody (antibody, human IgG1, kappa, L234A L235A, N297A, name in Kabat numbering)
heavy: B1 heavy
chain: B1 chain
light: B1 light with A39H, K112E
B4: GLS3000 K50P one-arm antibody (antibody, human IgG1, kappa, L234A L235A, N297A, name in Kabat numbering)
heavy: B1 heavy
chain: B1 chain
light: B1 light with A39H, K55P
B5: GLS3000 H34G one-arm antibody (antibody, human IgG1, kappa, L234A L235A, N297A, name in Kabat numbering)
heavy: B1 heavy
chain: B1 chain
light: B1 light with A39G
B6: GLS3000 K74T one-arm antibody (antibody, human IgG1, kappa, L234A L235A, N297A, name in Kabat numbering)
heavy: B1 heavy
chain: B1 chain
light: B1 light with A39H, K79T
B7: GLS3000 K50G one-arm antibody (antibody, human IgG1, kappa, L234A L235A, N297A, name in Kabat numbering)
heavy: B1 heavy
chain: B1 chain
light: B1 light with A39H, K55G
B8: GLS3000 H34V one-arm antibody (antibody, human IgG1, kappa, L234A L235A, N297A, name in Kabat numbering)
heavy: B1 heavy
chain: B1 chain
light: B1 light with A39V
B9: GLS3000 K50D one-arm antibody (antibody, human IgG1, kappa, L234A L235A, N297A, name in Kabat numbering)
heavy: B1 heavy
chain: B1 chain
light: B1 light with A39H, K55D
B10: GLS3000 K50Q one-arm antibody (antibody, human IgG1, kappa, L234A L235A, N297A, name in Kabat numbering)
heavy: B1 heavy
chain: B1 chain
light: B1 light with A39H, K55Q
B11: GLS3000 K50S one-arm antibody (antibody, human IgG1, kappa, L234A L235A, N297A, name in Kabat numbering)
heavy: B1 heavy
chain: B1 chain
light: B1 light with A39H, K55S
B12: GLS3000 K50Y one-arm antibody (antibody, human IgG1, kappa, L234A L235A, N297A, name in Kabat numbering)
heavy: B1 heavy
chain: B1 chain
light: B1 light with A39H, K55Y
B13: GLS3000 H34I one-arm antibody (antibody, human IgG1, kappa, L234A L235A, N297A, name in Kabat numbering)
heavy: B1 heavy
chain: B1 chain
light: B1 light with A39I
B14: GLS3000 H34W one-arm antibody (antibody, human IgG1, kappa, L234A L235A, N297A, name in Kabat numbering)
heavy: B1 heavy
chain: B1 chain
light: B1 light with A39W
B15: GLS3000 H34P one-arm antibody (antibody, human IgG1, kappa, L234A L235A, N297A, name in Kabat numbering)
heavy: B1 heavy
chain: B1 chain
light: B1 light with A39P
B16: GLS3000 H34F one-arm antibody (antibody, human IgG1, kappa, L234A L235A, N297A, name in Kabat numbering)
heavy: B1 heavy
chain: B1 chain
light: B1 light with A39F
B17: GLS3000 H34Y one-arm antibody (antibody, human IgG1, kappa, L234A L235A, N297A, name in Kabat numbering)
heavy: B1 heavy
chain: B1 chain
light: B1 light with A39Y
B18: GLS3000 H34Q one-arm antibody (antibody, human IgG1, kappa, L234A L235A, N297A, name in Kabat numbering)
heavy: B1 heavy
chain: B1 chain
light: B1 light with A39Q
B19: GLS3000 H34N one-arm antibody (antibody, human IgG1, kappa, L234A L235A, N297A, name in Kabat numbering)
heavy: B1 heavy
chain: B1 chain
light: B1 light with A39N
B20: GLS3000 H34M one-arm antibody (antibody, human IgG1, kappa, L234A L235A, N297A, name in Kabat numbering)
heavy: B1 heavy
chain: B1 chain
light: B1 light with A39M
B21: GLS3000 K50R one-arm antibody (antibody, human IgG1, kappa, L234A L235A, N297A, name in Kabat numbering)
heavy: B1 heavy
chain: B1 chain
light: B1 light with A39H, K55R
B22: GLS3000 K50T one-arm antibody (antibody, human IgG1, kappa, L234A L235A, N297A, name in Kabat numbering)
heavy: B1 heavy
chain: B1 chain
light: B1 light with A39H, K55T
B23: GLS3000 H34K one-arm antibody (antibody, human IgG1, kappa, L234A L235A, N297A, name in Kabat numbering)
heavy: B1 heavy
chain: B1 chain
light: B1 light with A39K
B24: GLS3000 K50E one-arm antibody (antibody, human IgG1, kappa, L234A L235A, N297A, name in Kabat numbering)
heavy: B1 heavy
chain: B1 chain
light: B1 light with A39H, K55E
B25: GLS3000 H34L one-arm antibody (antibody, human IgG1, kappa, L234A L235A, N297A, name in Kabat numbering)
heavy: B1 heavy
chain: B1 chain
light: B1 light with A39L
B26: GLS3000 H34R one-arm antibody (antibody, human IgG1, kappa, L234A L235A, N297A, name in Kabat numbering)
heavy: B1 heavy
chain: B1 chain
light: B1 light with A39R
B27: GLS3000 H34D one-arm antibody (antibody, human IgG1, kappa, L234A L235A, N297A, name in Kabat numbering)
heavy: B1 heavy
chain: B1 chain
light: B1 light with A39D
B28: GLS3000 H34S one-arm antibody (antibody, human IgG1, kappa, L234A L235A, N297A, name in Kabat numbering)
heavy: B1 heavy
chain: B1 chain
light: B1 light with A39S
B29: GLS3000 L27bD one-arm antibody (antibody, human IgG1, kappa, L234A L235A, N297A, name in Kabat numbering)
heavy: B1 heavy
chain: B1 chain
light: B1 light with L29D, A39H
B30: GLS3000 H34T one-arm antibody (antibody, human IgG1, kappa, L234A L235A, N297A, name in Kabat numbering)
heavy: B1 heavy
chain: B1 chain
light: B1 light with A39T
B31: GLS3000 H34E one-arm antibody (antibody, human IgG1, kappa, L234A L235A, N297A, name in Kabat numbering)
heavy: B1 heavy
chain: B1 chain
light: B1 light with A39E
B32: GLS3000 K50A one-arm antibody (antibody, human IgG1, kappa, L234A L235A, N297A, name in Kabat numbering)
heavy: B1 heavy
chain: B1 chain
light: B1 light with A39H, K55A

Target: T1, CD3ε homodimer protein (human, UniProt P07766 23-126, limits assumed)
T1 construct: also called CD3 (CD3ε)
T1 sequence (P07766 23-126 limits assumed): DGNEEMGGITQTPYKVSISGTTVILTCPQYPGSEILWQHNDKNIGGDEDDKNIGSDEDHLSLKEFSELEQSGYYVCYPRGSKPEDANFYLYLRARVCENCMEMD
Experiment: SPR Biacore T200, CD3ε homodimer on chip;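 also: Light-chain single-residue variant antibodies injected over amine-coupled CD3ε homodimer on a CM4 chip at 25 °C, bound amount divided by that of the GLS3000-containing antibody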

| Binder | ratio of amount bound vs unaltered GLS3000 |
| --- | --- |
| B1 | 1.06 |
| B2 | 0.24 |
| B3 | 0.94 |
| B4 | 0.3 |
| B5 | 1.02 |
| B6 | 0.84 |
| B7 | 0.16 |
| B8 | 0.85 |
| B9 | 0.22 |
| B10 | 0.18 |
| B11 | 0.23 |
| B12 | 0.24 |
| B13 | 0.65 |
| B14 | 0.24 |
| B15 | 0.34 |
| B16 | 0.27 |

| Binder | ratio of amount bound vs unaltered GLS3000 |
| --- | --- |
| B17 | 0.59 |
| B18 | 0.25 |
| B19 | 0.65 |
| B20 | 0.35 |
| B21 | 0.5 |
| B22 | 0.19 |
| B23 | 2.17 |
| B24 | 0.24 |
| B25 | 0.59 |
| B26 | 0.2 |
| B27 | 0.22 |
| B28 | 0.78 |
| B29 | 0.17 |
| B30 | 0.89 |
| B31 | 0.23 |
| B32 | 0.23 |
